The source of these data is paper PMC8390506, “Interaction of spindle assembly factor TPX2 with importins-α/β inhibits protein phase separation” (The Journal of Biological Chemistry, 2021).

To fix the notation:
B1: importin-α/β heterodimer (complex)
chain 1: not shown
chain 2: MELVTILEKTVSPDRNELEAAQKFLEQAAVENLPTFVVELSKVLANPANSQVARVAAGLQIKNPLTSRDPDVKAQYQQRWLAIDASARGEIKTYVLRTLGTESYRPSSASQCVAGIACAEITVNQWPQLIPQLVANVTDPNSTERMKESTLEAIGYICQDIDPEQLQHKSNEILTAIIQGMRKEEPSNNVRLAATNALLNSLEFTKANFDKESERHYIMQVVCEATQCPDTRVRVAALQNLVKIMSLYYQYMETYMGPALFAITVEAMKNEIDEVALQGIEFWSNVCDEEMDLAIEASEAAEQGRPPEHTSKFYAKGALQYLVPILTQTLTKQDENDDDDDWNPCKAAGVCLMLLATCCEDDIVPHVLPFIKEHIKNPDWRYRDAAVMAFGCILEGPESCQLKPLVIQAMPTLIELMKDPSVVVRDTTAWTVGRICELLPEAAINDVYLAPLLQCLIEGLGAEPRVASNVCWAFSSLAEAAYEAADVADDQEEPSSYCLSSSFEVIVQKLLETTDRPDGHQNNLRSAAYEALMEIVKNSAKDCYPAVQKTTLVIMERLQQVLQVESHIQSTSDRIQFNDLQSLLCATLQNVLRKVQHQDALQISDVVMASLLRMFQSTAGSGGVQEDALMAVSTLVEVLGAEFLKYMEAFKPFLTIGLKNYAEYQVCLAAVGLVGDLCRALQSNILPFCDEMMQFLLENLGNENVHRSVKPQILSVFGDVALAIGGEFKKYLDVVLNTLQQASQAQVDKSDYDMVDYLNELREGCIEAYTGIIQGLKGDQENVHPDVMLVQPRVEFILSFIDHIAGDEDHTDSVVACGAGLIGDLCTAFGKDVLKLVEARPMIHELLTEGRRSKTNKTKTLATWATKELRKLKNQA
B2: importin-β (natural protein, Xenopus laevis, UniProt P52297 1-876, looked up)
chain: MELVTILEKTVSPDRNELEAAQKFLEQAAVENLPTFVVELSKVLANPANSQVARVAAGLQIKNPLTSRDPDVKAQYQQRWLAIDASARGEIKTYVLRTLGTESYRPSSASQCVAGIACAEITVNQWPQLIPQLVANVTDPNSTERMKESTLEAIGYICQDIDPEQLQHKSNEILTAIIQGMRKEEPSNNVRLAATNALLNSLEFTKANFDKESERHYIMQVVCEATQCPDTRVRVAALQNLVKIMSLYYQYMETYMGPALFAITVEAMKNEIDEVALQGIEFWSNVCDEEMDLAIEASEAAEQGRPPEHTSKFYAKGALQYLVPILTQTLTKQDENDDDDDWNPCKAAGVCLMLLATCCEDDIVPHVLPFIKEHIKNPDWRYRDAAVMAFGCILEGPESCQLKPLVIQAMPTLIELMKDPSVVVRDTTAWTVGRICELLPEAAINDVYLAPLLQCLIEGLGAEPRVASNVCWAFSSLAEAAYEAADVADDQEEPSSYCLSSSFEVIVQKLLETTDRPDGHQNNLRSAAYEALMEIVKNSAKDCYPAVQKTTLVIMERLQQVLQVESHIQSTSDRIQFNDLQSLLCATLQNVLRKVQHQDALQISDVVMASLLRMFQSTAGSGGVQEDALMAVSTLVEVLGAEFLKYMEAFKPFLTIGLKNYAEYQVCLAAVGLVGDLCRALQSNILPFCDEMMQFLLENLGNENVHRSVKPQILSVFGDVALAIGGEFKKYLDVVLNTLQQASQAQVDKSDYDMVDYLNELREGCIEAYTGIIQGLKGDQENVHPDVMLVQPRVEFILSFIDHIAGDEDHTDSVVACGAGLIGDLCTAFGKDVLKLVEARPMIHELLTEGRRSKTNKTKTLATWATKELRKLKNQA
notes: importin-β, Xenopus laevis; Construct in the Supplemental information; The UniProt entry recalled may be a fragment; also called importin-β alone; source: recombinant, purified to >95% purity
B5: Targeting Protein for XKlp2 (TPX2), full length, wild type (natural protein, Xenopus laevis, UniProt Q6NUF4 1-716, looked up)
chain: MEDTQDTYSYDAPSIFNFSSFHEDHNADSWFDQVTNAENIPPDQRRLSETSVNTEQNSKVEPVQTTPSKDDVSNSATHVCDVKSQSKRSSRRMSKKHRQKLLVKMKDTHLEKETAPPEYPPCKKLKGSSSKGRHAPVIKSQSTSSHHSMTSPKPKAQLTMPSTPTVLKRRNVLVKAKNSEEQELEKMQELQKEMLENLKKNEHSMKVAITGAGQPVKTFIPVTKPVDFHFKTDDRLKRTANQPEGDGYKAVDFASELRKHPPSPVQVTKGGHTVPKPFNLSKGKRKHEEASDYVSTAEQVIAFYKRTPARYHLRSRQREMEGPSPVKMIKTKLTNPKTPLLQTKGRHRPVTCKSAAELEAEELEMINQYKFKAQELDTRILEGGPVLLKKPLVKEPTKAIGFDLEIEKRIQQREKKEEIEEETFTFHSRPCPSKMLTDVVGVPLKKLLPVTVPQSPAFALKNRVRIPAQEEKQEEMVPVIKATRMPHYGVPFKPKLVEQRQVDVCPFSFCDRDKERQLQKEKRLDELRKDEVPKFKAQPLPQFDNIRLPEKKVKMPTQQEPFDLEIEKRGASKLQRWQQQIQEELKQQKEMVVFKARPNTVVHQEPFVPKKENRSLTESLSGSIVQEGFELATAKRAKERQEFDKCLAETEAQKSLLEEEIRKRREEEEKEEISQLRQELVHKAKPIRKYRAVEVKASDVPLTVPRSPNFSDRFKC
notes: TPX2, Xenopus laevis, full length; 1 to 716; Named GFP-TPX2 for SEC-MALS; also called GFP-TPX2; wt-TPX2; source: recombinant, purified to >95% purity

Assay [1] has as its target B5. As to the kind of experiment: cell-based or functional assay.
The target of assay [2] is B5. As to the kind of experiment: SEC-MALS; Superdex-200-increase 3.2/300 in line with a Wyatt light scattering machine; GFP-TPX2 alone, importin-α/β alone and TPX2 with importin-α/β (TPX2 printed as 5 M, importin-α/β 15 μM). The conditions noted are these: both partners purified. A general note: SEC sorts molecules by how far they enter the pores of the column.
The target of another assay is GST-importin-α (Xenopus laevis). Described as above. The conditions noted are these: both partners purified.
The target of the assay “importin-β” is B2. The assay is described as follows: BLI; Octet (ForteBio); TPX2 attached to sensors, importin concentration varied; normalized amplitudes; apparent Kd. The conditions noted are these: both partners purified. (Biolayer interferometry detects binding as a change in optical thickness at a sensor tip.)
In the assay “importin-α/β heterodimer” the target is B1. The assay is described as above. The conditions noted are these: both partners purified.

GST-importin-α (Xenopus laevis), sequence (chain, as listed by the source): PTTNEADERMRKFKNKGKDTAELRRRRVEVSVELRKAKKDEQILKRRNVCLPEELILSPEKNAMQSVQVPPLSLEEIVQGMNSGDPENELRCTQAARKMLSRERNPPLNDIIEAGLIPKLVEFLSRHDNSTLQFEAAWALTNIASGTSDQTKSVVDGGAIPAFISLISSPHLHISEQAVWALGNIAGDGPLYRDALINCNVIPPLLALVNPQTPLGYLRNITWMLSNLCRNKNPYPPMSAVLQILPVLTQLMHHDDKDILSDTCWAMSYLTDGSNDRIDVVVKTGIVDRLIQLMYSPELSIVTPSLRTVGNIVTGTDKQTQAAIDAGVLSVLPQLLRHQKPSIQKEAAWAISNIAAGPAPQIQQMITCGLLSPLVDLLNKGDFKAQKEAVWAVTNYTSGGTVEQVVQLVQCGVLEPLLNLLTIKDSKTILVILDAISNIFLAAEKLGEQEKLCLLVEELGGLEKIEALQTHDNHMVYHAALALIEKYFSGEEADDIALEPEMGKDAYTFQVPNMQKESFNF

Take B1: in assay [1], the “inhibition of TPX2 condensation (fluorescence microscopy; TPX2 1 μM, importin-α/β in molar excess)” value amounted to 2 fold excess. For the same molecule, the “stoichiometry N” value in assay [2] was 1 TPX2:importin-α:importin-β.

Regarding B2, in assay [1], the “TPX2-mediated branching microtubule nucleation in Xenopus egg cytosol (TIRF microscopy; TPX2 150 nM, importin-β 2.5x to 20x)” value is 10 fold molar excess. The “stoichiometry N” value with GST-importin-α was 1 importin-α:importin-β.

B3: TPX2 C terminus (a.a. 480-716) (domain or fragment, Xenopus laevis, UniProt Q6NUF4 480-716, looked up)
chain: IKATRMPHYGVPFKPKLVEQRQVDVCPFSFCDRDKERQLQKEKRLDELRKDEVPKFKAQPLPQFDNIRLPEKKVKMPTQQEPFDLEIEKRGASKLQRWQQQIQEELKQQKEMVVFKARPNTVVHQEPFVPKKENRSLTESLSGSIVQEGFELATAKRAKERQEFDKCLAETEAQKSLLEEEIRKRREEEEKEEISQLRQELVHKAKPIRKYRAVEVKASDVPLTVPRSPNFSDRFKC
notes: TPX2, Xenopus laevis, amino acids 480-716 (ordered C-terminal region); also called TPX2's C terminus; source: recombinant, purified to >95% purity
With B3, the Kd with importin-β is more than 4000 nM.

B4: TPX2 N terminus (a.a. 1-480) (domain or fragment, Xenopus laevis, UniProt Q6NUF4 1-480, looked up)
chain: MEDTQDTYSYDAPSIFNFSSFHEDHNADSWFDQVTNAENIPPDQRRLSETSVNTEQNSKVEPVQTTPSKDDVSNSATHVCDVKSQSKRSSRRMSKKHRQKLLVKMKDTHLEKETAPPEYPPCKKLKGSSSKGRHAPVIKSQSTSSHHSMTSPKPKAQLTMPSTPTVLKRRNVLVKAKNSEEQELEKMQELQKEMLENLKKNEHSMKVAITGAGQPVKTFIPVTKPVDFHFKTDDRLKRTANQPEGDGYKAVDFASELRKHPPSPVQVTKGGHTVPKPFNLSKGKRKHEEASDYVSTAEQVIAFYKRTPARYHLRSRQREMEGPSPVKMIKTKLTNPKTPLLQTKGRHRPVTCKSAAELEAEELEMINQYKFKAQELDTRILEGGPVLLKKPLVKEPTKAIGFDLEIEKRIQQREKKEEIEEETFTFHSRPCPSKMLTDVVGVPLKKLLPVTVPQSPAFALKNRVRIPAQEEKQEEMVPVI
notes: TPX2, Xenopus laevis, amino acids 1-480 (disordered N-terminal region); also called N-terminal region (a.a. 1-480) of TPX2; source: recombinant, purified to >95% purity
As for B4, the Kd with importin-β is 512 ± 70 nM.

With B5, the Kd came to 75 ± 15 nM in the assay with importin-α/β heterodimer and 530 ± 75 nM with importin-β.
